PMC8317952
Where “and” joins values, the source holds several entries; their conditions need not be identical. Equal entries are not always repeated.

Experiments:
[1] = substrate: CCCCCCCCCCCCCCCC(=O)O; experiment: Steady-state NADPH oxidation; assay type: biochemical, Bacillus megaterium; conditions: other: rates of NADPH oxidation, hyperbolic fit, 23 °C, pH 7.4
[2] = substrate: CCCCCCCCCCCCCCOS(=O)(=O)O; experiment: Steady-state NADPH oxidation; assay type: biochemical, Bacillus megaterium; conditions: other: rates of NADPH oxidation, 23 °C, pH 7.4

B1: P450BM-3 (Priestia megaterium NBRC 15308 = ATCC 14581) (protein)
chain: MTIKEMPQPKTFGELKNLPLLNTDKPVQALMKIADELGEIFKFEAPGRVTRYLSSQRLIKEACDESRFDKNLSQALKFVRDFAGDGLFTSWTHEKNWKKAHNILLPSFSQQAMKGYHAMMVDIAVQLVQKWERLNADEHIEVPEDMTRLTLDTIGLCGFNYRFNSFYRDQPHPFITSMVRALDEAMNKLQRANPDDPAYDENKRQFQEDIKVMNDLVDKIIADRKASGEQSDDLLTHMLNGKDPETGEPLDDENIRYQIITFLIAGHETTSGLLSFALYFLVKNPHVLQKAAEEAARVLVDPVPSYKQVKQLKYVGMVLNEALRLWPTAPAFSLYAKEDTVLGGEYPLEKGDELMVLIPQLHRDKTIWGDDVEEFRPERFENPSAIPQHAFKPFGNGQRACIGQQFALHEATLVLGMMLKHFDFEDHTNYELDIKETLTLKPEGFVVKAKSKKIPLGGIPSPSTEQSAKKVRKKAENAHNTPLLVLYGSNMGTAEGTARDLADIAMSKGFAPQVATLDSHAGNLPREGAVLIVTASYNGHPPDNAKQFVDWLDQASADEVKGVRYSVFGCGDKNWATTYQKVPAFIDETLAAKGAENIADRGEADASDDFEGTYEEWREHMWSDVAAYFNLDIENSEDNKSTLSLQFVDSAADMPLAKMHGAFSTNVVASKELQQPGSARSTRHLEIELPKEASYQEGDHLGVIPRNYEGIVNRVTARFGLDASQQIRLEAEEEKLAHLPLAKTVSVEELLQYVELQDPVTRTQLRAMAAKTVCPPHKVELEALLEKQAYKEQVLAKRLTMLELLEKYPACEMKFSEFIALLPSIRPRYYSISSSPRVDEKQASITVSVVSGEAWSGYGEYKGIASNYLAELQEGDTITCFISTPQSEFTLPKDPETPLIMVGPGTGVAPFRGFVQARKQLKEQGQSLGEAHLYFGCRSPHEDYLYQEELENAQSEGIITLHTAFSRMPNQPKTYVQHVMEQDGKKLIELLDQGAHFYICGDGSQMAPAVEATLMKSYADVHQVSEADARLWLQQLEEKGRYAKDVWAG
- Km [1]: 67 ± 8 µM
- kcat/Km [2]: 7.7e+06 M⁻¹ s⁻¹ and 3e+06 M⁻¹ s⁻¹
- Km ([2]; hyperbolic fit): 4.2 ± 0.6 µM
- kcat ([2]; hyperbolic fit): 32.33 s⁻¹
- kcat/Km ([2]; hyperbolic fit): 7.67e+06 ± 1e+06 M⁻¹ s⁻¹
